Assay results reported in paper PMC11850223.
Residue numbers refer to the chain shown, from its start.

Key:
[1] = molecular target: Hera_1–510_K51Q (ATPase-deficient variant) (Thermus thermophilus); test: SEC
[2] = molecular target: Hera_1–419_K51Q (ATPase-deficient variant) (Thermus thermophilus); test: SEC
[3] = molecular target: T1, cis-heterodimer Hera/Hera_208-419 (Thermus thermophilus, UniProt O07897;O07897 1-510;208-419); test: fluorescence anisotropy
T1 sequence 1: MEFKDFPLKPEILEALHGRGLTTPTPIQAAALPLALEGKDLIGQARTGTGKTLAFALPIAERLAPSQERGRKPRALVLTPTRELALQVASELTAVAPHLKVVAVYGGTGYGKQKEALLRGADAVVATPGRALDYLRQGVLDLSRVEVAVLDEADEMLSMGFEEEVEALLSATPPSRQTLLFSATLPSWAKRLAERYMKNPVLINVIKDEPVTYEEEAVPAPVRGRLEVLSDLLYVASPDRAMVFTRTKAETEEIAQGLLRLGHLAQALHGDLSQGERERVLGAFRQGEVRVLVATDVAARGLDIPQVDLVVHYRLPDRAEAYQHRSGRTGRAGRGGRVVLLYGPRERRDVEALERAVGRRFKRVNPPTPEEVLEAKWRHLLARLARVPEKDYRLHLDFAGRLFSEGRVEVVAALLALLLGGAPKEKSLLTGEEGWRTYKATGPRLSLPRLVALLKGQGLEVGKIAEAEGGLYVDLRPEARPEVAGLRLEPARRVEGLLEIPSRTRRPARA
T1 sequence 2: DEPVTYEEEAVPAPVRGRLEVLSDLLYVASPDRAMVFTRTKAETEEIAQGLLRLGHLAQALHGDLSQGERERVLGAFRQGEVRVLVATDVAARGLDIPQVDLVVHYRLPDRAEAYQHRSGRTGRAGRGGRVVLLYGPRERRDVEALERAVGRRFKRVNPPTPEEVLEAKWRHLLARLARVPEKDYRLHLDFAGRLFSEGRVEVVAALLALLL

[4] = molecular target: T2, trans-heterodimer Hera_1-419/Hera_370-510 (Thermus thermophilus, UniProt O07897;O07897 1-419;370-510); test: stopped-flow fluorescence
T2 sequence 1: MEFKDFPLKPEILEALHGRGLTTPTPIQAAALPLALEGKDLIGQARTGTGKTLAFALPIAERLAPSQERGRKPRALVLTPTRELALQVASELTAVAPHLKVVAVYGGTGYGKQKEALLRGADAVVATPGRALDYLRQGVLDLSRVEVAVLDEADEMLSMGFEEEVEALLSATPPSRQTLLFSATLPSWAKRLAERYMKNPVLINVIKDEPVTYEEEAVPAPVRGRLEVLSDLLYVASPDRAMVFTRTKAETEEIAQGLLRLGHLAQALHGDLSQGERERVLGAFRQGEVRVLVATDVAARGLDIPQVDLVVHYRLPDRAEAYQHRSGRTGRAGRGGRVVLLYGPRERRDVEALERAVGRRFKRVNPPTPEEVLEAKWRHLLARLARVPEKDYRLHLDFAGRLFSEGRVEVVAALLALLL
T2 sequence 2: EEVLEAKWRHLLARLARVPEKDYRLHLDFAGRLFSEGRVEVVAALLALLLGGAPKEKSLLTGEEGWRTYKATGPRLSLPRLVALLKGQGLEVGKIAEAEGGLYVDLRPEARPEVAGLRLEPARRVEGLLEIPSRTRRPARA

Hera [5] = molecular target: T3, Hera (Thermus thermophilus, UniProt O07897 1-510); test: fluorescence anisotropy
T3 sequence: T1 sequence 1

Hera_K51Q [6] = molecular target: T4, Hera_K51Q (Thermus thermophilus, UniProt O07897 1-510, K51Q); test: fluorescence anisotropy
T4 sequence: T1 sequence 1 with K51Q

[7] = molecular target: T5, Hera/Hera_K51Q heterodimer (Thermus thermophilus, UniProt O07897;O07897 1-510;1-510, K51Q); test: fluorescence anisotropy
T5 sequence 1: T1 sequence 1
T5 sequence 2: T1 sequence 1 with K51Q

Hera [8] = molecular target: T3, Hera; test: stopped-flow fluorescence
Hera_K51Q [9] = molecular target: T4, Hera_K51Q; test: stopped-flow fluorescence
[10] = molecular target: T5, Hera/Hera_K51Q heterodimer; test: stopped-flow fluorescence
[11] = molecular target: T6, Hera/Hera_1-419 heterodimer, dye-labelled in cis (Thermus thermophilus, UniProt O07897;O07897 1-510;1-419, E115C;E227C); test: single-molecule FRET
T6 sequence 1: T1 sequence 1 with E115C, E227C
T6 sequence 2: T2 sequence 1

[12] = molecular target: T7, Hera/Hera_1-419 heterodimer, dye-labelled in trans (Thermus thermophilus, UniProt O07897;O07897 1-510;1-419, E115C;E227C); test: single-molecule FRET
T7 sequence 1: T1 sequence 1
T7 sequence 2: T2 sequence 1 with E115C, E227C

Hera_E115C_E227C = molecular target: T8, Hera_E115C_E227C (Thermus thermophilus, UniProt O07897 1-510, E115C;E227C); test: single-molecule FRET
T8 sequence: T1 sequence 1 with E115C, E227C

[13] = molecular target: T9, Hera_1-419_E115C_E227C/Hera_1-419 heterodimer (Thermus thermophilus, UniProt O07897;O07897 1-419;1-419, E115C;E227C); test: single-molecule FRET
T9 sequence 1: T2 sequence 1 with E115C, E227C
T9 sequence 2: T2 sequence 1

[14] = molecular target: T2, trans-heterodimer …; test: fluorescence anisotropy
[15] = molecular target: T1, cis-heterodimer Hera/Hera_208-419; test: stopped-flow fluorescence
[16] = molecular target: T10, Hera/Hera_1-419 heterodimer (Thermus thermophilus, UniProt O07897;O07897 1-510;1-419); test: fluorescence anisotropy
T10 sequence 1: T1 sequence 1
T10 sequence 2: T2 sequence 1

“Hera_1–510_K51Q (ATPase-deficient variant) (enzyme)” was tested, and the stoichiometry N [1] was 2.

With “Hera_1–419_K51Q (ATPase-deficient variant) (domain or fragment)” the stoichiometry N [2] was 2.

For GCAGGUCCCAAGGGUUGGGCUGUUCGCCCAUU (structured_RNA) [fl-32mer], the Kd [3] was 126 ± 9 nM, the Kd [4] was 7300 ± 1000 nM and the Kd (Hera [5]) was 60 ± 10 nM. The Kd (Hera_K51Q [6]) was 170 ± 20 nM, the Kd [7] was 80 ± 20 nM and the Kd (Hera [8]) was 490 ± 220 nM. For the same molecule, the Kd (Hera_K51Q [9]) was 1500 ± 700 nM and the Kd [10] was 130 ± 70 nM.

GCAGGUCCCAAGGGUUGGGCUGUUCGCCCAUU (structured_RNA) [32mer (smFRET)]: binds [11]; binds [12]; binds (Hera_E115C_E227C). GCAGGUCCCAAGGGUUGGGCUGUUCGCCCAUU (structured_RNA) [32mer (smFRET)]: binds [13].

B1: fl-32/9mer (structured_RNA)
RNA 1: GCAGGUCCCAAGGGUUGGGCUGUUCGCCCAUU
RNA 2: UUGGGACCU
Molecule B1 has a Kd [14] of 16000 ± 6000 nM, a Kd [3] of 1400 ± 500 nM and a Kd [15] of 1800 ± 800 nM. The Kd [16] was 3000 ± 300 nM, the Kd (Hera [5]) was 2000 ± 300 nM and the Kd (Hera_K51Q [6]) was 2100 ± 400 nM. It also gave a Kd [7] of 2500 ± 400 nM and a Kd (Hera [8]) of 3000 ± 1000 nM.
